The target in this assay is Flag–UBR4 (UBR4 tagged at its endogenous locus) (human (endogenous in HEK293T)) (UniProt Q5T4S7). Briefly: cryo-EM structure; endogenous SIFI immunoprecipitated through tagged UBR4 from HEK293T and run on Superose 6 SEC; the complex formed in cells and was co-purified; single-particle cryo-EM, AF2 models fitted in low-resolution regions.

The record followed here is article PMC12286842.

Sequence of Flag–UBR4 (UBR4 tagged at its endogenous locus), Q5T4S7-1 1-5183 (enzyme) (Q5T4S7 whole entry): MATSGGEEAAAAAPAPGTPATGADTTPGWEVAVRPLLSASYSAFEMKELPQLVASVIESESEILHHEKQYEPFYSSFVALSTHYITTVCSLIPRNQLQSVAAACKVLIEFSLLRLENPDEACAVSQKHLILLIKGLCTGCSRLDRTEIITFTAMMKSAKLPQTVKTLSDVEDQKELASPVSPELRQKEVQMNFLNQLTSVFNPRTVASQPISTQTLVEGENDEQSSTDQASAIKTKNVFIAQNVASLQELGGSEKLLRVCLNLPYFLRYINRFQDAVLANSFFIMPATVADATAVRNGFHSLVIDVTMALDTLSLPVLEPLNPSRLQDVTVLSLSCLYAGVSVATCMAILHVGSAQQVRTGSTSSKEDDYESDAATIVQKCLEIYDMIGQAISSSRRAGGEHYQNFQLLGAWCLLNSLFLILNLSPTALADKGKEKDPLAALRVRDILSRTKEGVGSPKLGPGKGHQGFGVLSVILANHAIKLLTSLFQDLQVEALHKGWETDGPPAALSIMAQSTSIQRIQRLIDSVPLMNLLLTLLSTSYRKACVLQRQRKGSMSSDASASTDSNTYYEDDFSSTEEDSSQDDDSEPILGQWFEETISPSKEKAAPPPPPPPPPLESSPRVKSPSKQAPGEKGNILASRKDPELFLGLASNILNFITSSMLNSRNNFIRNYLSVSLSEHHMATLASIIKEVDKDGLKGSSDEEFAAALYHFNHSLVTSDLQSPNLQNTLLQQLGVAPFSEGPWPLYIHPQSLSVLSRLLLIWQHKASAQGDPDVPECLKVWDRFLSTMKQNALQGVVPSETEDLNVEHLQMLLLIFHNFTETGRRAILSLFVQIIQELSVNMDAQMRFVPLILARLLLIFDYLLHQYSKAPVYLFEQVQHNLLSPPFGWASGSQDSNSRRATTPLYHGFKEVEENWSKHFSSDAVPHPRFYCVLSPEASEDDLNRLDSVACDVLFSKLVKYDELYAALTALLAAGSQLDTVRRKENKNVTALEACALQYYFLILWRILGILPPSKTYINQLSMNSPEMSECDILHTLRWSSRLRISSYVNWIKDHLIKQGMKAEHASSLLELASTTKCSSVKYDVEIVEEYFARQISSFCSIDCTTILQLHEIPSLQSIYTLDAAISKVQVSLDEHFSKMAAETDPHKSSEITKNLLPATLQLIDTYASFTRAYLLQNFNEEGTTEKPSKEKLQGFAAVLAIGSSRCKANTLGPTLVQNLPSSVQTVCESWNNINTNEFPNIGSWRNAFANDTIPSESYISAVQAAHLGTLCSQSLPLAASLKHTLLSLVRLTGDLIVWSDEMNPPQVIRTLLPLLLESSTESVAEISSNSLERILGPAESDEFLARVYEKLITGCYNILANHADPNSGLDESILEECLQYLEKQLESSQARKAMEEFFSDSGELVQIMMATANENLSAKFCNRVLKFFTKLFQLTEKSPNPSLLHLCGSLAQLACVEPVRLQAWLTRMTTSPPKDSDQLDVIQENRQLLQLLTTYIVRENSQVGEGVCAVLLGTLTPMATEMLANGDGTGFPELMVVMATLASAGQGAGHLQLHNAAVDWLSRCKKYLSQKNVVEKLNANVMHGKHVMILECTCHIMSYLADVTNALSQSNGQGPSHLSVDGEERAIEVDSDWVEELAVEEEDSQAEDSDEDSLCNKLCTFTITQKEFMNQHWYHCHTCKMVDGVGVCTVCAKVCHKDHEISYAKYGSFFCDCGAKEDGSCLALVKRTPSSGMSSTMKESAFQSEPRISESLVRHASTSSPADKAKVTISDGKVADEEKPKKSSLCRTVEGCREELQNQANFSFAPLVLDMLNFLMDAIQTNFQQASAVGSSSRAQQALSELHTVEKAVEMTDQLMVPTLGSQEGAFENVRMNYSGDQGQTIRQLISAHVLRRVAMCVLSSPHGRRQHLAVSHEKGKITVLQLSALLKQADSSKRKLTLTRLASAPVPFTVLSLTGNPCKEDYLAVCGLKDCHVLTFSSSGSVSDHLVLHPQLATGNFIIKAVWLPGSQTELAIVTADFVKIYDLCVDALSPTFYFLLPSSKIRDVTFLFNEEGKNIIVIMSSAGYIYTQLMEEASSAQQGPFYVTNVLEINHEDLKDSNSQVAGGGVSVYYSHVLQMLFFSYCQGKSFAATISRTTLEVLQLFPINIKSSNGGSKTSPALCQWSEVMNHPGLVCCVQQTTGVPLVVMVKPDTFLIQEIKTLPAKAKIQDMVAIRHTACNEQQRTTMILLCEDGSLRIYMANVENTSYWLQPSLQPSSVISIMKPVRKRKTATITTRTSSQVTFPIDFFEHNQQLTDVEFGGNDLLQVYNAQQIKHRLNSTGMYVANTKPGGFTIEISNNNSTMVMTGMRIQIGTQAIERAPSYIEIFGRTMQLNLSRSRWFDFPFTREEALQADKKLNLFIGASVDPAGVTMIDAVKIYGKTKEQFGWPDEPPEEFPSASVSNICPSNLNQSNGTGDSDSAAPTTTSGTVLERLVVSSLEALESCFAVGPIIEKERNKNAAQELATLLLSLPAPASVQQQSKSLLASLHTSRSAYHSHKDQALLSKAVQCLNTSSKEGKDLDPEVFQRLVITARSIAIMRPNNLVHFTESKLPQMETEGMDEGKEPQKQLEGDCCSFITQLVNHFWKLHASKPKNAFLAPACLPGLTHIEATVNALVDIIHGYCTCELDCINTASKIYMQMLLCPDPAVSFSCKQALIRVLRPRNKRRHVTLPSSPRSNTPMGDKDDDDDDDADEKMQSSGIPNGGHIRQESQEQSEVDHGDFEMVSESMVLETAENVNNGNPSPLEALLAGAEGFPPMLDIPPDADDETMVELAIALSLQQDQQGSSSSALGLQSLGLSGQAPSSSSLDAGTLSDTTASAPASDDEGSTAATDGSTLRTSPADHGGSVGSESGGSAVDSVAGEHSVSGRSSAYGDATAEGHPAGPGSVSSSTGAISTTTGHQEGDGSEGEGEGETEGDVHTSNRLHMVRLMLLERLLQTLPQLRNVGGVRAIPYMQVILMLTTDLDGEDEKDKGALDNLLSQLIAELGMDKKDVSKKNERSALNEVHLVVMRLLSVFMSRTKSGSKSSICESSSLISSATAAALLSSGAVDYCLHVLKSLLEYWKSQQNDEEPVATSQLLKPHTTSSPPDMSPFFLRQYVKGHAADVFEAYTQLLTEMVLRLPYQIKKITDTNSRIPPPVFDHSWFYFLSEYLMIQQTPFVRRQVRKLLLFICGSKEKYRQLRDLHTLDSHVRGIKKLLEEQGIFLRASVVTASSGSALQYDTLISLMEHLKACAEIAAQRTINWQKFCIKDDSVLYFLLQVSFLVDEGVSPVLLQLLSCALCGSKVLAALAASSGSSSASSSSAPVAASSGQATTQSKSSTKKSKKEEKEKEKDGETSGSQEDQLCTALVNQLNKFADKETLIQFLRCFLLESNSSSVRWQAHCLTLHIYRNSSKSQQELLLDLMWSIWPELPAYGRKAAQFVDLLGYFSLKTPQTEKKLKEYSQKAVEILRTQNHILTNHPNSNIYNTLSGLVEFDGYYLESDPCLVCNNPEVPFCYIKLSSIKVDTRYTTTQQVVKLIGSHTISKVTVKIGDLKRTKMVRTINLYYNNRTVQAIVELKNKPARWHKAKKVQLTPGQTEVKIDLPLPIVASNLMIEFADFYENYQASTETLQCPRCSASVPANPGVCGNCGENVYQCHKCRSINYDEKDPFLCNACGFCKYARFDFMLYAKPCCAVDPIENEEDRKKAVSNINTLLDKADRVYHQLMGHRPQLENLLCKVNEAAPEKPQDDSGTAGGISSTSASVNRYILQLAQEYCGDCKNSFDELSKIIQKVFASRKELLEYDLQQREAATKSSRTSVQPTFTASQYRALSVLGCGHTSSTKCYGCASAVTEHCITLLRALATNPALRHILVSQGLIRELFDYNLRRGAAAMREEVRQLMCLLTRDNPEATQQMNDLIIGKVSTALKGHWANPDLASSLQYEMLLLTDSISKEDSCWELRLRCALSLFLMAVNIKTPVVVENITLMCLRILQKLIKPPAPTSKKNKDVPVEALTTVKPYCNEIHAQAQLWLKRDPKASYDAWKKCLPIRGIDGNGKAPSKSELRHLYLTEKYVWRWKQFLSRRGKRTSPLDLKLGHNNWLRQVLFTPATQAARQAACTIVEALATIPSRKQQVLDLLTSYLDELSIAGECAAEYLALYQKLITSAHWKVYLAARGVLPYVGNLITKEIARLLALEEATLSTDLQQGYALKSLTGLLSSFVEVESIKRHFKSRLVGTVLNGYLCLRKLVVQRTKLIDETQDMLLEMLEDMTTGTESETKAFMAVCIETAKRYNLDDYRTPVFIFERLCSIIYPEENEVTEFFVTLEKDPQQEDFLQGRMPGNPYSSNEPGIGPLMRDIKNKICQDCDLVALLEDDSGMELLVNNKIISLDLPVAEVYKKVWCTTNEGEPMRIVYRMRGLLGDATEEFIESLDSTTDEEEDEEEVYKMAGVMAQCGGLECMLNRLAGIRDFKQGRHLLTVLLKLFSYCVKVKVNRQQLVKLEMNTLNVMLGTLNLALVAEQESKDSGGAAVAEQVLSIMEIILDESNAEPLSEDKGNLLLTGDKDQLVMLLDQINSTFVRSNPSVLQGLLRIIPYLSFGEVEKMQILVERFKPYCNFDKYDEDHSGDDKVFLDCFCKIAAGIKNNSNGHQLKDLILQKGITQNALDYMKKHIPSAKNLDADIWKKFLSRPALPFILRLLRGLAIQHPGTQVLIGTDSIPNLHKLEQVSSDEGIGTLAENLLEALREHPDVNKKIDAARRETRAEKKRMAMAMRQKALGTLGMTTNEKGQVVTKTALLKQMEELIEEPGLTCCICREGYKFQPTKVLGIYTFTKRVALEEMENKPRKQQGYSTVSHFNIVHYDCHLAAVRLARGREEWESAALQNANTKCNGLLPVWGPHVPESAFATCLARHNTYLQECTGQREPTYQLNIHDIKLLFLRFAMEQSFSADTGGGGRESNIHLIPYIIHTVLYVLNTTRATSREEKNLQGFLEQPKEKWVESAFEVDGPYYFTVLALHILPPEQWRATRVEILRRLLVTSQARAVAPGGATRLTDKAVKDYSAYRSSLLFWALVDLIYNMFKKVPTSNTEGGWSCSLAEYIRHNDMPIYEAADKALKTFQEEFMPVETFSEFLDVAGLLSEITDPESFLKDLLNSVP

“Flag–UBR4 (UBR4 tagged at its endogenous locus), Q5T4S7-1 1-5183 (enzyme)”: the stoichiometry N stood at 2.

A word on the stoichiometry N: it is the number of molecules, sites or subunits per partner or assembly.
